Laboratory results as given in patent publication US10450368 (DUKE UNIVERSITY, dated 2019).

T1: SSB (UniProt P05455 1-408)
T1 sequence: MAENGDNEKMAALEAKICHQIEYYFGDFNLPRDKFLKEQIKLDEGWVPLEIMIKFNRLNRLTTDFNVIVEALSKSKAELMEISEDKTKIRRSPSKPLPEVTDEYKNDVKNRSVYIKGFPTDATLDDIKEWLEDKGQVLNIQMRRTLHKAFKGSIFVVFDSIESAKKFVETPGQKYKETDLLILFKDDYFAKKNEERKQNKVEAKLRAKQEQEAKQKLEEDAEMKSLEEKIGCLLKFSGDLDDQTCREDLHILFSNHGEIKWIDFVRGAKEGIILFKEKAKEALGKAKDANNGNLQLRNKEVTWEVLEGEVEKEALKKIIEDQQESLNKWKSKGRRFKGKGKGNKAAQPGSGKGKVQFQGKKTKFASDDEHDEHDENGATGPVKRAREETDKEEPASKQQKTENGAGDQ

T2: Scl-70 (UniProt P11387 1-765)
T2 sequence: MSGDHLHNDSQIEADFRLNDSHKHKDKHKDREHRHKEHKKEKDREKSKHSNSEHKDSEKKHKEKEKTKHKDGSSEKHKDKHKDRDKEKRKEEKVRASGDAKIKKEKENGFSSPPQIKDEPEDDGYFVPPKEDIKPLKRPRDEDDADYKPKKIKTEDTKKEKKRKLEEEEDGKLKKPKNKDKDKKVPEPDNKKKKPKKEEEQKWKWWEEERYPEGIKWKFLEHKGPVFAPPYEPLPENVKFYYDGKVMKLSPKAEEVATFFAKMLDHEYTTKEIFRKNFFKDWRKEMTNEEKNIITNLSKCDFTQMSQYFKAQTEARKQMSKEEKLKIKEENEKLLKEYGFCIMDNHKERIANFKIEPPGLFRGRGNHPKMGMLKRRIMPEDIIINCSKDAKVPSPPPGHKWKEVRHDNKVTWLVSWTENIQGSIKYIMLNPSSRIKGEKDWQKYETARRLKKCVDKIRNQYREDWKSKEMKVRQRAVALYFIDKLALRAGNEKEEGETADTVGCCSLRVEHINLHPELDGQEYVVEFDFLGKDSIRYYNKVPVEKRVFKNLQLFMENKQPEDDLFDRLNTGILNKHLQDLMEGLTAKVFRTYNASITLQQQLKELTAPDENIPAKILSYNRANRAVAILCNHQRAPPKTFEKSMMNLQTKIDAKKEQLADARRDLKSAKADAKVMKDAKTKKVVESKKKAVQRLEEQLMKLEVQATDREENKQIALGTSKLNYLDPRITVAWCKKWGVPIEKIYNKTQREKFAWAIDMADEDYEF

T3: Centromere B (UniProt P07199 1-599)
T3 construct: also called Cent B
T3 sequence: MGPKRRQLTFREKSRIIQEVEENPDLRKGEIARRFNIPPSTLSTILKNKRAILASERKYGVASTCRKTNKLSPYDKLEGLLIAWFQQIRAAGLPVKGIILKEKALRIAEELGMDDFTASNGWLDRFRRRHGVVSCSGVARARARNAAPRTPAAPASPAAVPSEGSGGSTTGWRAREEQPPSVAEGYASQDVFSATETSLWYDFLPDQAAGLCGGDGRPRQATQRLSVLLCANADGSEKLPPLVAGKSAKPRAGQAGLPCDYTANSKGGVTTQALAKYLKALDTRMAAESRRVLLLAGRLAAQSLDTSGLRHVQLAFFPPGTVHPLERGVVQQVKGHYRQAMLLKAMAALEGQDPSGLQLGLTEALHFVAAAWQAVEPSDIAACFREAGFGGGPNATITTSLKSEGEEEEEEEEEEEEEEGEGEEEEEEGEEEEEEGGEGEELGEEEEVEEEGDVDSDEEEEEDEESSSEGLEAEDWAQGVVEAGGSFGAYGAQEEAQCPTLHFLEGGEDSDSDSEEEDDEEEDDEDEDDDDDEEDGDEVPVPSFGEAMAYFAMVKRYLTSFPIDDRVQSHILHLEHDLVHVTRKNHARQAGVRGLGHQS

T4: STUB-1 (human, UniProt Q9UNE7 1-303)
T4 sequence: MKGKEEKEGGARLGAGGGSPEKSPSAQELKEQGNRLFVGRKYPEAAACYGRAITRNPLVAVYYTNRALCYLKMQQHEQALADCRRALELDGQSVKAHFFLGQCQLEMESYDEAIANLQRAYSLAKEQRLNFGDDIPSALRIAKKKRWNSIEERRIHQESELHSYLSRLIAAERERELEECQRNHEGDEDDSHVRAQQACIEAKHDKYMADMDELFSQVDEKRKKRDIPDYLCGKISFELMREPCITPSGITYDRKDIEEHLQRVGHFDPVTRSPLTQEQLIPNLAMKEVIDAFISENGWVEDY

B1: CH493 (antibody, V domains shown)
VH: QVRLLQYGGGVKRPGASMTISCVASGYNFNDYYIHWVRQAPGQGLELMGWIDPSGGRTDYAGAFGDRVSMYRDKSMNTLYMDLRSLRSGDTAMYYCVRNVGTAGSLLHYDHWGLGVMVTVSS
VL: EIVLTQSPATLSVSPGERVTLSCRASQSVRNNLAWYRQKRGQAPRLLIYGASTRATGIPARFSGSGSGTEFTLTISSMQSEDFAVYYCQQYNNWWTFGQGTKVEIK
notes: also called CH235.9; DH493
B2: CH557 (antibody, V domains shown)
VH: QVRLAQYGGGVKRLGATMTLSCVASGYTFNDYYIHWVRQAPGQGFELLGYIDPANGRPDYAGALRERLSFYRDKSMETLYMDLRSLRYDDTAMYYCVRNVGTAGSLLHYDHWGSGSPVIVSS
VL: EIVLTQSPATLSASPGERVTLTCRASRSVRNNVAWYQHKGGQSPRLLIYDASTRAAGVPARFSGSASGTEFTLAISNLESEDFTVYFCLQYNNWWTFGQGTRVDIK
notes: also called CH235.12; CH557_4A/293i

What was measured:
[1] = molecular target: T5, CH505.TF mutant gp120 M8 (HIV-1); assay: direct-binding ELISA (OD450), panel 'CH505.TF gp120 M8'
T5 construct: domain: gp120

[2] = molecular target: T1, SSB; assay: AtheNA, Ab 25 ug/ml
Text: (§1) AtheNA Multi-Lyte ANA Plus Test System is one such assay. This is luminex-based assay, which is also used to screen patient sera.

[3] = molecular target: T6, Sm (Smith antigen); assay: AtheNA, Ab 25 ug/ml
T6 construct: Protein complex
Text: as §1

[4] = molecular target: T7, RNP (ribonucleoprotein); assay: AtheNA, Ab 25 ug/ml
T7 construct: Protein-RNA complex
Text: as §1

[5] = molecular target: T2, Scl-70; assay: AtheNA, Ab 25 ug/ml
Text: as §1

[6] = molecular target: T8, SSA; assay: AtheNA, Ab 25 ug/ml
T8 construct: also called SSA (Ro)
Text: as §1

[7] = molecular target: T9, Histones; assay: AtheNA, Ab 25 ug/ml
T9 construct: Mixture of proteins
Text: as §1

[8] = molecular target: T7, RNP (ribonucleoprotein); assay: AtheNA, Ab 25 ug/ml; remark: listed apart in the source
[9] = molecular target: T8, SSA; assay: AtheNA, Ab 25 ug/ml; remark: listed apart in the source
[10] = molecular target: T3, Centromere B; assay: AtheNA, Ab 25 ug/ml
[11] = molecular target: T4, STUB-1; assay: ProtoArray human protein microarray
[12] = molecular target: T1, SSB; assay: AtheNA, Ab 50 ug/ml
[13] = molecular target: T6, Sm (Smith antigen); assay: AtheNA, Ab 50 ug/ml
[14] = molecular target: T7, RNP (ribonucleoprotein); assay: AtheNA, Ab 50 ug/ml
[15] = molecular target: T2, Scl-70; assay: AtheNA, Ab 50 ug/ml
[16] = molecular target: T8, SSA; assay: AtheNA, Ab 50 ug/ml
[17] = molecular target: T3, Centromere B; assay: AtheNA, Ab 50 ug/ml
[18] = molecular target: T9, Histones; assay: AtheNA, Ab 50 ug/ml

Binder | EC50 (read off the curve) [1] [µg/mL] | AtheNA signal [2] | AtheNA signal [3] | AtheNA signal [4] | AtheNA signal [5] | AtheNA signal [6] | AtheNA signal [7] | AtheNA signal [8] | AtheNA signal [9] | AtheNA signal [10] | binding result [11] | AtheNA signal [12] | AtheNA signal [13] | AtheNA signal [14] | AtheNA signal [15] | AtheNA signal [16] | AtheNA signal [17] | AtheNA signal [18]
B1 | ~2 | 38 | 53 | 55 | 34 | 100 | 202 |  |  |  |  |  |  |  |  |  |  | 
B2 |  |  |  |  |  |  |  | 6 relative luminescence units | 4 relative luminescence units | 25 relative luminescence units | no binding | 15 relative luminescence units | 8 relative luminescence units | 10 relative luminescence units | 6 relative luminescence units | 6 relative luminescence units | 46 relative luminescence units | 16 relative luminescence units
